Measurements: PMC11109279, “Heliorhodopsin-mediated light-modulation of ABC transporter” (Nature Communications, 2024)

Legend:
[1] = biological target: T1, heterodimeric multidrug resistance ABC transporter OmrDE (Omithinimicrobium cerasi strain USBA17B2, UniProt A0A285VW85 1-577; A0A285VWG3 1-661); assay: ITC; OcHeR injected into the Omr protein; 25 °C, 500 rpm; buffer SD; MicroCal ITC200; one site binding model (sequential binding site model for R233Q); perfect saturation was not achieved; details: both partners purified
T1 construct: gene codon-optimized and synthesized; also called OmrDE heterodimer; source: E. coli C43 (DE3), OmrD and OmrE co-expressed, purified (DDM-solubilized membrane fraction, Ni2+-NTA agarose)
T1 sequence (looked up) 1: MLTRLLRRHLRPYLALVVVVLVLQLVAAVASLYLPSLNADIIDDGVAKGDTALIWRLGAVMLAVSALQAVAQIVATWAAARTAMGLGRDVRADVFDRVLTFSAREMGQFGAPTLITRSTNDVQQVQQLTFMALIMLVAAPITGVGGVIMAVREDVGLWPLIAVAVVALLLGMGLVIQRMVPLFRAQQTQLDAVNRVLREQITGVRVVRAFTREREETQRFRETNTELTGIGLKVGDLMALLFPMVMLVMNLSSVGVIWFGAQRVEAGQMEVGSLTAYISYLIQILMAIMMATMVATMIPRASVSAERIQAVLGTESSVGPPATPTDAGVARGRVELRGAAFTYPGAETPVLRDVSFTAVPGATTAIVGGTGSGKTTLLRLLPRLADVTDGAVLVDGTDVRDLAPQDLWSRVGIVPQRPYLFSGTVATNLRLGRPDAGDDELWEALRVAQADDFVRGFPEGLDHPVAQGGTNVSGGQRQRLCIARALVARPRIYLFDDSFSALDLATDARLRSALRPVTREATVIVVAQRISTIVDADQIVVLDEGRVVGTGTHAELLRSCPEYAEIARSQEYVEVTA
T1 sequence (looked up) 2: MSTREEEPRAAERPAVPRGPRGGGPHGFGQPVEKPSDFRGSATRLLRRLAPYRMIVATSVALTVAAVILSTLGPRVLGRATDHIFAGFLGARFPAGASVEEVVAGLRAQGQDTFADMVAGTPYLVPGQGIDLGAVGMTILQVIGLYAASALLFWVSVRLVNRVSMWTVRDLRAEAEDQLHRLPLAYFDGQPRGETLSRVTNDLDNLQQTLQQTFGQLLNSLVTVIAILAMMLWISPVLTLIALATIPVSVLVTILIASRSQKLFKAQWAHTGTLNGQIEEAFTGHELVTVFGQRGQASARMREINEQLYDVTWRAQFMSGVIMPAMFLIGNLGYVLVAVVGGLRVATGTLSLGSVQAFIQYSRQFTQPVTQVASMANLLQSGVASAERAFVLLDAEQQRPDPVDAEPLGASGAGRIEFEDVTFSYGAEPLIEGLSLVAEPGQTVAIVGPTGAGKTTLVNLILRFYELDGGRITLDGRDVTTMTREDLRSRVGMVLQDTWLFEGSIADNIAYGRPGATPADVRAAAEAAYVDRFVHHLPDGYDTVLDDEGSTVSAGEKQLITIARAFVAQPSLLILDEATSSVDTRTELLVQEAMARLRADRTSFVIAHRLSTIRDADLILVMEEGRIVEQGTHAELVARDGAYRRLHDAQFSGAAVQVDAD

[2] = biological target: T2, NBD-truncated OmrDE (OmrD^tcE^tc) (Omithinimicrobium cerasi strain USBA17B2); assay: as above; details: both partners purified
T2 chain 1: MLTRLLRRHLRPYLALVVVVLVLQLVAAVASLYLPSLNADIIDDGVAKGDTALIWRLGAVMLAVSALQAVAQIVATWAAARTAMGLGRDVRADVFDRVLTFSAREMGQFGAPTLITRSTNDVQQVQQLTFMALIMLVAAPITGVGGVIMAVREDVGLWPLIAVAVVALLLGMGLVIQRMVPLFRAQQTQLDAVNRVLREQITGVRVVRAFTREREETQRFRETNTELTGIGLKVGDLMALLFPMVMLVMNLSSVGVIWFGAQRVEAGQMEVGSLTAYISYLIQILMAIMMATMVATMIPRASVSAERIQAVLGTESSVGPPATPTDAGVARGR
T2 chain 2: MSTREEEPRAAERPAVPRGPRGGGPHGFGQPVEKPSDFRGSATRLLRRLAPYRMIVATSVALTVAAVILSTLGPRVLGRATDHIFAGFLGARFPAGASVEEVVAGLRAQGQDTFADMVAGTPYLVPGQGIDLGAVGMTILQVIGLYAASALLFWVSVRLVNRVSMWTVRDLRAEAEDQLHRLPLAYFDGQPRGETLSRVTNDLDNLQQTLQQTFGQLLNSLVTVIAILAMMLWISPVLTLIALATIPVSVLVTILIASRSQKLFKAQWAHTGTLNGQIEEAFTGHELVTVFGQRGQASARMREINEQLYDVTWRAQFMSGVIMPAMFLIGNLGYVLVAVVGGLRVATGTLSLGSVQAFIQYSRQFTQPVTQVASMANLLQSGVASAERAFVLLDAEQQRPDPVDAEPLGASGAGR

OmrE (OmrE-His) [3] = biological target: T3, OmrE (OmrE-His) (Omithinimicrobium cerasi strain USBA17B2, UniProt A0A285VWG3 1-661); assay: as above; details: both partners purified
T3 construct: OmrE-His calculated as 72.09 kDa; source: E. coli C43 (DE3), purified (DDM-solubilized membrane fraction, Ni2+-NTA agarose)
T3 sequence (looked up): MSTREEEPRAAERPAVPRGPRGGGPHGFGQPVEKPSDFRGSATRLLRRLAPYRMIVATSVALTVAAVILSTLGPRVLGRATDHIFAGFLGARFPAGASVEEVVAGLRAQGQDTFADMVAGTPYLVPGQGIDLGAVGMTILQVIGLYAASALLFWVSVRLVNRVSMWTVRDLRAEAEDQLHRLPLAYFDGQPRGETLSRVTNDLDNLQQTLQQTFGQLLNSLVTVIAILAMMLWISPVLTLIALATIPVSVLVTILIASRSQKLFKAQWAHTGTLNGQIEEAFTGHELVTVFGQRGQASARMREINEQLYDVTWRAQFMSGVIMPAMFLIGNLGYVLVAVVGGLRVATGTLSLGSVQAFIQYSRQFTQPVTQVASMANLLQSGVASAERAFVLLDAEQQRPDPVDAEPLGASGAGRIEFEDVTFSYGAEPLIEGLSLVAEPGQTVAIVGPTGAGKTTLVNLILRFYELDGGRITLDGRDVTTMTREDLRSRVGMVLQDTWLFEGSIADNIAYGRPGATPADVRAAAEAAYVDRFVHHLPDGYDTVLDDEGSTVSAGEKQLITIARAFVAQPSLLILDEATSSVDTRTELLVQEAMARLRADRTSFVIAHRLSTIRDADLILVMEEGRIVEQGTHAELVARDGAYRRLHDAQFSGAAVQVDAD

[4] = biological target: T4, NBD-truncated OmrDE (OmrD^tcE^tc) (Omithinimicrobium cerasi strain USBA17B2); assay: ITC; replicate #3
T4 chain 1: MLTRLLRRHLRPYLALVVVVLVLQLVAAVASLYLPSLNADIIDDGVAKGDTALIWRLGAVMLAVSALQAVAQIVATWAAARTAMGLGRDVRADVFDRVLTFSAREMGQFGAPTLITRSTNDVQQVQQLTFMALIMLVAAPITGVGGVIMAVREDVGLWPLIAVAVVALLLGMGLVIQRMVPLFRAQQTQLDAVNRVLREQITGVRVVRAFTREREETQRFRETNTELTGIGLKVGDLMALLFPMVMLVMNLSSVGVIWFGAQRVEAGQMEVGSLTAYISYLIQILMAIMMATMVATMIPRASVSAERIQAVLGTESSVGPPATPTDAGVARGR
T4 chain 2: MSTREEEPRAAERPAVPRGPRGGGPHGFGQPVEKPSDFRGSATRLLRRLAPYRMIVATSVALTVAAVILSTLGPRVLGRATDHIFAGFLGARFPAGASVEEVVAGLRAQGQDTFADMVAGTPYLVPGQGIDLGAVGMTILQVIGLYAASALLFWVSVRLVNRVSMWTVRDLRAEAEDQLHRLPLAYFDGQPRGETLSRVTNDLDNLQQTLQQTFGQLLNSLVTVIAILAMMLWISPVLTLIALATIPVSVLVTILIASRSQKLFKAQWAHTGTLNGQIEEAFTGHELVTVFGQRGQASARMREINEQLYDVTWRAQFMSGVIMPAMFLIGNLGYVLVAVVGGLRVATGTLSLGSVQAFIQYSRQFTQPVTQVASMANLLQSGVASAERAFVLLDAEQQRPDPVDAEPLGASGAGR

OmrE (OmrE-His) [5] = biological target: T5, OmrE (OmrE-His) (Omithinimicrobium cerasi strain USBA17B2, UniProt A0A285VWG3 1-661); assay: ITC; replicate #3
T5 chain: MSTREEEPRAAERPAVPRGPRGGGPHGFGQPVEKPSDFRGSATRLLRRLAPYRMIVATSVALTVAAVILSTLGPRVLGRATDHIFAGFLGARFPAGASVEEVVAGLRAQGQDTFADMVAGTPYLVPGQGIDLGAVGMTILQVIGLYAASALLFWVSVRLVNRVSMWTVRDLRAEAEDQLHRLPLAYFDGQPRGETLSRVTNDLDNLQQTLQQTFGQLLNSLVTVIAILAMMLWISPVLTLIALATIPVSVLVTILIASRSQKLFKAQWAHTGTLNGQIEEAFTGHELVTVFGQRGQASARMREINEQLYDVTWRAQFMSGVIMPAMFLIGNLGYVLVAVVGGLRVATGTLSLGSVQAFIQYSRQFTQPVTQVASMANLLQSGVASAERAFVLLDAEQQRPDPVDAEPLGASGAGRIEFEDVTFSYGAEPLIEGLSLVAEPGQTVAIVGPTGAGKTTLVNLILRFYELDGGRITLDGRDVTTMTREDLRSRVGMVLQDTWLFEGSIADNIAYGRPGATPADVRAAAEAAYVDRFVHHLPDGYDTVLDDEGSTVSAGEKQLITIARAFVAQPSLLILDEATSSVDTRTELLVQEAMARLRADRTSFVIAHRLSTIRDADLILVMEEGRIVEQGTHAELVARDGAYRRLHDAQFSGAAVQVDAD

[6] = biological target: T1, heterodimeric multidrug resistance ABC …; assay: cell-based or functional assay

B1: Omithinimicrobium cerasi strain USBA17B2 heliorhodopsin (OcHeR) WT (natural protein, UniProt A0A285W045 1-266, looked up)
chain: MGSTGTGSTASTTRADESRYAGLRRYNVVAAVVHAAQAVAVVVLATDFTLPMTASYLAGPPGSPPGEAVTLWDVPIPLAIATFLALSALFHVIVASPPFFDRYRRGLAQGHNYFRWVEYSLSSSLMIVIIAQLVGISDVVALLGLFGVNASMILFGWLQEKYHQPGDGGWLPFVFGCLAGAVPWVGIVLYTIAPGSTSGAEPPGFVYGIIVSLFLFFNVFALVQWLQYRPVGRFRDYLLGERLYITLSLVAKSALAWQIFGGTLAT
modifications: retinal Schiff base linked to K252
notes: gene codon-optimized for E. coli and chemically synthesized; source: E. coli C43 (DE3), purified (DDM-solubilized membrane fraction, Ni2+-NTA agarose)
- Kd [1]: 91.6 µM
- dH [1]: 48.9 kcal/mol
- dH [2]: -35.5 kcal/mol
- Kd (OmrE (OmrE-His) [3]): 35.3 µM
- dH (OmrE (OmrE-His) [3]): 35.5 kcal/mol
- Kd [4]: 46 µM
- Kd (OmrE (OmrE-His) [5]): 46 µM
- DAPI translocation capacity of OmrDE co-expressed with OcHeR WT in IMVs at 15 min, presence of light against absence of light [6]: 3 fold
- half-life (t1/2) of the G state (554 nm) of the OcHeR photocycle with OmrDE against OcHeR WT alone [6]: 1.6 fold
- half-life (t1/2) of the O state (618 nm) of the OcHeR photocycle with OmrDE against OcHeR WT alone [6]: 2.2 fold
